Numbering of substitutions follows the chain as printed. Where two headings read alike, the source gives them in different places. Blank lines part the entries; values can stand above or below the binder they belong to.
Experiments:
[1] = target: T1, human CTLA-4 expressed on cells (293T cells stably transfected with human CTLA-4); in vitro-activated human … (human, UniProt P16410 36-223); assay: FACS
[2] = target: T1, human CTLA-4 expressed on cells (293T …); assay: FACS; remark: listed apart in the source

EC50 [1]: 0.15 nM
B1: 5-B07 (antibody, V domains shown)
VH: EVQLLESGGGLVQPGGSLRLSCAASGFTFSSYSMNWVRQAPGKGLEWVSAISGSGGSTYYADSVKGRFTISRDNSKNTLYLQMNSLRAEDTAVYYCARDRVEMNQWLADWGQGTLVTVSS
VL: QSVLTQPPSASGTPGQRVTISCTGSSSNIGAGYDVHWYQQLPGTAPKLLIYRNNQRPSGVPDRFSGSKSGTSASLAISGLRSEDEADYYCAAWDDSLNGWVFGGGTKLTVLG

EC50 [1]: 0.13 nM
B2: 4-E03 (antibody, V domains shown)
VH: EVQLLESGGGLVQPGGSLRLSCAASGFTFSDYYMSWVRQAPGKGLEWVSGISWSSRDKGYADSVKGRFTISRDNSKNTLYLQMNSLRAEDTAVYYCTTDLARYWGQGTLVTVSS
VL: QSVLTQPPSASGTPGQRVTISCTGSSSNIGAGYDVHWYQQLPGTAPKLLIYGNDNRPSGVPDRFSGSKSGTSASLAISGLRSEDEADYYCAVWDDSLNGVVFGGGTKLTVLG

EC50 [1]: 0.1 nM
B3: 2-C06 (antibody, V domains shown)
VH: EVQLLESGGGLVQPGGSLRLSCAASGFTFSSYAMSWVRQAPGKGLEWVSGISGSGGYIHYADSVKGRFTISRDNSKNTLYLQMNSLRAEDTAVYYCATYSSGLHDAFDIWGQGTLVTVSS
VL: B2 VL with G52D, D54N, N55K, V92A, V100W

EC50 [2]: 0.19 nM
B4: 2-F09 (antibody, V domains shown)
VH: EVQLLESGGGLVQPGGSLRLSCAASGFTFKAYSMSWIRQAPGKGLEWVSGISNTGGSTDFADSVKGRFTISRDNSKNTLYLQMNSLRAEDTAMYYCARLGYSGYDDRGMDVWGQGTLVTVSS
VL: QSVLTQPPSASGTPGQRVTISCSGSSSNIGSNYVYWYQQLPGTAPKLLIYGNSNRPSGVPDRFSGSKSGTSASLAISGLRSEDEADYYCQSYDSSLSGPVVFGGGTKLTVLG

Reference: US20220041723A1 (published 2022)
